Data as given in patent publication US20260139023A1 (Dana-Farber, published 2026).
Changes are numbered by the printed parent chain. Numbers in names are those of the source.

What was measured:
[1] = target: T1, recombinant human integrin αVβ5 ectodomain (human, UniProt P06756 32-991; P18084 24-717, glycosylated with heterogeneous glycans); test: fluorescence anisotropy competition: 50 nM A488-irisin-bac probe and 1000 nM αVβ5, unlabeled irisin-bac varied 0-4000 nM
T1 construct: range 32-991;range 24-717; Used in the solution assays (anisotropy, MST, HDX-MS, FRET); An introduced Cys and the rest of the HRV3C site would remain after cleavage; also called αVβ5 alone; αVβ5/Mn2+

[2] = target: T1, recombinant human integrin αVβ5 …; test: fluorescence anisotropy, compared with irisin-mam on αVβ5
[3] = target: T1, recombinant human integrin αVβ5 …; test: fluorescence anisotropy competition: 50 nM A488-irisin-WT probe and 1000 nM αVβ5, unlabeled irisin-WT varied 0-4000 nM
[4] = target: T1, recombinant human integrin αVβ5 …; test: fluorescence anisotropy competition, 50 nM A488-irisin-WT (bacterial) and 1000 nM αVβ5, varied unlabeled irisin-WT (FIG. 7F); competition, wild type bacterial dimer, run beside R75E (FIG. 7F)
[5] = target: T1, recombinant human integrin αVβ5 …; test: fluorescence anisotropy, A488-irisin-bac, varied αVβ5, 1 mM MnCl2 (FIG. 7D); direct binding, A488-irisin-bac (FIG. 7D)
[6] = target: T1, recombinant human integrin αVβ5 …; test: fluorescence anisotropy competition, 50 nM A488-irisin-bac and 1000 nM αVβ5, varied unlabeled irisin-bac (FIG. 7E); competition, unlabeled irisin-bac vs A488-irisin-bac (FIG. 7E)
[7] = target: T1, recombinant human integrin αVβ5 …; test: fluorescence anisotropy, A488-irisin-bac, αVβ5 varied 0-6000 nM, 1 mM MnCl2
[8] = target: T1, recombinant human integrin αVβ5 …; test: fluorescence anisotropy competition: 50 nM A488-irisin-WT probe and 1000 nM αVβ5, unlabeled irisin-R75E varied 0-4000 nM
[9] = target: T1, recombinant human integrin αVβ5 …; test: fluorescence anisotropy competition, 50 nM A488-irisin-WT (bacterial) and 1000 nM αVβ5, varied unlabeled irisin-R75E (FIG. 7F); competition, R75E monomer mutant (FIG. 7F)
[10] = target: T2, recombinant human Hsp90α (purified from E. coli, untagged) (human, UniProt P07900 2-732); test: fluorescence anisotropy binding assay with labelled irisin, Hsp90α without nucleotide or charged with ATP, AMP-PNP or ADP varied 0-2500 nM
T2 construct: mature; Tested as Apo and as ATP-, AMP-PNP- and ADP-charged forms; also called eHsp90α; Hsp90α-Apo

[11] = target: T1, recombinant human integrin αVβ5 …; test: fluorescence anisotropy binding assay with labelled irisin, αVβ5 varied 0-1000 nM as the positive curve beside the Hsp90α curves; buffer and activation state of αVβ5 not given in the legend
[12] = target: T3, αVβ5/Hsp90α complex (reconstituted from recombinant human αVβ5 ectodomain and recombinant human Hsp90α) (human, UniProt P06756 32-991; P18084 24-717; P07900 2-732, glycosylated); test: fluorescence anisotropy, 50 nM A488-irisin-His, αVβ5/Hsp90α complex in 1 mM MgCl2 and 1 mM CaCl2 (FIG. 4D)
T3 construct: range 32-991;range 24-717;mature; also called integrin/Hsp90α complex

[13] = target: T1, recombinant human integrin αVβ5 …; test: fluorescence anisotropy, direct binding: labelled irisin WT with varied aVß5 concentration (0 to 1000 nM); black curve and black label
[14] = target: T4, clasped and tagged αVβ5 (recombinant human αVβ5 ectodomain with C-terminal coiled-coil clasp and affinity … (human, UniProt P06756 32-991; P18084 24-717, glycosylated); test: BLI (Octet RED384), clasped and tagged αVβ5 on streptavidin sensors, 1 mM MgCl2 and 1 mM CaCl2; affinity-purified αVβ5 preparation that still held co-purified Hsp90α (FIG. 1B)
T4 construct: range 32-991;range 24-717; Used in BLI (streptavidin sensors) and TALON pull-downs; also called clasped αVβ5; immobilized clasped αVβ5; not shown: introduced Cys, HRV3C site, acidic α-helical coiled-coil and twin Strep-II tag; introduced Cys, HRV3C site, basic α-helical coiled-coil and 8xHis tag
Description: (§1) The domain boundaries are as follows: αV, 32-991; β5, 24-717.
Biolayer Inferometry (BLI) measurements were conducted by Octet RED384. […] Data analysis HT software was used for the fitting and Kd calculations.

[15] = target: T1, recombinant human integrin αVβ5 …; test: fluorescence anisotropy competition, 50 nM A488-irisin-bac and 1000 nM αVβ5, varied unlabeled irisin-mam (irisin-His) (FIG. 7E); competition, unlabeled irisin-mam vs A488-irisin-bac (FIG. 7E)
[16] = target: T3, αVβ5/Hsp90α complex (reconstituted from …); test: summary sentence of Example 2: αVβ5 receptor activated by eHsp90α; αVβ5 activated by eHsp90α; rounded summary value
[17] = target: T1, recombinant human integrin αVβ5 …; test: fluorescence anisotropy competition: 50 nM A488-irisin-bac probe and 1000 nM αVβ5, unlabeled irisin-mam (irisin-His) varied 0-4000 nM
[18] = target: T3, αVβ5/Hsp90α complex (reconstituted from …); test: fluorescence anisotropy competition, 50 nM A488-irisin-His and 125 nM αVβ5/Hsp90α, varied unlabeled irisin-His (FIG. 1H)
Excerpt: as §1

[19] = target: T3, αVβ5/Hsp90α complex (reconstituted from …); test: fluorescence anisotropy, 50 nM A488-irisin-His, varied αVβ5/Hsp90α complex, 1 mM MgCl2 and 1 mM CaCl2 (FIG. 1G)
Excerpt: as §1

[20] = target: T3, αVβ5/Hsp90α complex (reconstituted from …); test: fluorescence anisotropy competition: 50 nM A488-irisin-His probe and 125 nM αVβ5 (as αVβ5/Hsp90α complex), unlabeled irisin-His varied 0-6000 nM
Excerpt: as §1

[21] = target: T1, recombinant human integrin αVβ5 …; test: fluorescence anisotropy, 50 nM A488-irisin-His, αVβ5 in 1 mM MnCl2 (FIG. 4D)
[22] = target: T3, αVβ5/Hsp90α complex (reconstituted from …); test: fluorescence anisotropy competition: 50 nM A488-irisin-His probe and 125 nM αVβ5 (as αVβ5/Hsp90α complex), unlabeled untagged irisin varied 0-6000 nM
Excerpt: as §1

[23] = target: T3, αVβ5/Hsp90α complex (reconstituted from …); test: fluorescence anisotropy competition, 50 nM A488-irisin-His and 125 nM αVβ5/Hsp90α, varied unlabeled untagged irisin (FIG. 1H)
Excerpt: as §1

[24] = target: T3, αVβ5/Hsp90α complex (reconstituted from …); test: fluorescence anisotropy competition: unlabeled WT irisin (0 to 6000 nM) against the labelled WT irisin probe on the αVβ5/Hsp90 complex; black curve
[25] = target: T1, recombinant human integrin αVβ5 …; test: fluorescence anisotropy, direct binding: labelled irisin N45Q with varied aVß5 concentration (0 to 1000 nM); grey curve and grey label
[26] = target: T3, αVβ5/Hsp90α complex (reconstituted from …); test: fluorescence anisotropy competition: unlabeled N45Q (0 to 6000 nM) against the labelled WT irisin probe on the αVβ5/Hsp90 complex; grey curve

B1: irisin-bac (non-glycosylated irisin dimer produced in bacteria) (ligand, UniProt Q8K4Z2 61-171, looked up)
chain: SPSAPVNVTVRHLKANSAVVSWDVLEDEVVIGFAISQQKKDVRMLRFIQEVNTTTRSCALWDLEEDTEYIVHVQAISIQGQSPASEPVLFKTPREAEKMASKNKDEVTMKE
modifications: Alexa Fluor 488 label where used as probe
notes: also called A488-irisin-bac
B1 was tested, and the IC50 [1] was 1190 nM, the “fold weaker affinity than irisin-mam” value [2] was about 8 fold and the IC50 [3] was 1270 nM. The Kd [4] was 299 nM, the Kd [5] was 256 nM and the Kd [6] was 294 nM. The Kd [7] was 317 nM.

B2: irisin-R75E (non-glycosylated irisin monomer mutant R75E from bacteria) (ligand, UniProt Q8K4Z2-1 30-140, looked up)
chain: B1 chain with R46E
notes: also called monomeric mutant
An IC50 [8] of 198 nM and a Kd [9] of 42 nM were found for B2 in this work.

B3: irisin-His (wild-type, glycosylated recombinant irisin, His tagged, from mammalian cells) (ligand)
chain: DSPSAPVNVTVRHLKANSAVVSWDVLEDEVVIGFAISQQKKDVRMLRFIQEVNTTTRSCALWDLEEDTEYIVHVQAISIQGQSPASEPVLFKTPREAEKMASKNKDEVTMKEHHHHHHHHHHRDPLEVLFQ
modifications: N-glycosylated at N36, N45 and N81 (numbers as printed); Alexa Fluor 488, 555 or 647 label where the assay says so
notes: Monomer by SEC-MALS; also called irisin-mam; A488-irisin-His
In the case of B3, the binding result [10] is reported as “no binding (tested: 2500 nM)”, the Kd [11] is reported as 43 nM and the Kd [12] is reported as 37 nM. The Kd [13] was 6 nM, the Kd [14] was 212 nM and the Kd [15] was 35 nM. The Kd [16] was about 30 nM, the IC50 [17] was 165 nM and the Kd [18] was 52 nM. For the same binder, the Kd [19] was 31 nM, the IC50 [20] was 499 nM and the Kd [21] was 28 nM.

B4: untagged irisin (wild-type, glycosylated recombinant irisin from mammalian cells) (ligand)
chain: DSPSAPVNVTVRHLKANSAVVSWDVLEDEVVIGFAISQQKKDVRMLRFIQEVNTTTRSCALWDLEEDTEYIVHVQAISIQGQSPASEPVLFKTPREAEKMASKNKDEVTMKE
modifications: N-glycosylated at N36, N45 and N81 (numbers as printed)
notes: also called unlabeled and untagged irisin; WT irisin
An IC50 [22] of 477 nM, a Kd [23] of 50 nM and an IC50 [24] of 440 nM were found for B4 in this work. For the same binder, the Ki [24] was 56 nM.

B5: irisin N45Q mutant (irisin glycosylation mutant, recombinant, from mammalian Expi293 cells) (ligand)
chain: B4 chain with N17Q
modifications: glycosylated at positions 36 and 81; position 45 is Q, not N-glycosylated
A Kd [25] of 32 nM, an IC50 [26] of 35 nM and a Ki [26] of 9 nM were found for B5 in this work.
